Biological target: T1, His-p55 (recombinant His-tagged erythrocyte p55/MPP1) (human, UniProt Q00013-1 1-466)
T1 sequence (looked up): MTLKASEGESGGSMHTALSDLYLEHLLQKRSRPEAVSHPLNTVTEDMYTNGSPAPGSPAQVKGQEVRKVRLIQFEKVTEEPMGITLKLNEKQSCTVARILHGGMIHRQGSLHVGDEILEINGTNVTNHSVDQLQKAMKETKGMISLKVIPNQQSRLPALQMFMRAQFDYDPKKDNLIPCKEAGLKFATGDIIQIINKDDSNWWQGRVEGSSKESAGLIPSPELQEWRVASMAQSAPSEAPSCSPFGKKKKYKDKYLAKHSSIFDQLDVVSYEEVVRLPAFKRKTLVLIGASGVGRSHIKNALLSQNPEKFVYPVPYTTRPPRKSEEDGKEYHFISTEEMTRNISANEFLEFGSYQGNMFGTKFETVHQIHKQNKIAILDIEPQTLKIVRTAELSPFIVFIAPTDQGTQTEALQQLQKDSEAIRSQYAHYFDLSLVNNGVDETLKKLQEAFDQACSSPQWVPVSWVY
Experiment: SPR

B1: MBP-NF2-N (merlin N-terminal half, aa 1-311, including the FERM domain) (domain or fragment, human, UniProt P35240 1-311, looked up)
chain: MAGAIASRMSFSSLKRKQPKTFTVRIVTMDAEMEFNCEMKWKGKDLFDLVCRTLGLRETWFFGLQYTIKDTVAWLKMDKKVLDHDVSKEEPVTFHFLAKFYPENAEEELVQEITQHLFFLQVKKQILDEKIYCPPEASVLLASYAVQAKYGDYDPSVHKRGFLAQEELLPKRVINLYQMTPEMWEERITAWYAEHRGRARDEAEMEYLKIAQDLEMYGVNYFAIRNKKGTELLLGVDALGLHIYDPENRLTPKISFPWNEIRNISYSDKEFTIKPLDKKIDVFKFNSSKLRVNKLILQLCIGNHDLFMRRR
Work on B1 yielded a Kd of 3.7 nM.

From article PMC3959803 (Experimental biology and medicine (Maywood, N.J.), 2009)
